Tested on: MS2 coat protein
Experiment: apparent KD of MS2 coat protein; designed switch direction (-1 OFF switch, 1 ON switch): -1; higher = weaker reporter binding
Summary of the method: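 Apparent KD, taken as the median over clusters for each design, was obtained by curve-fitting normalised cluster fluorescence. Designed RNA switches had been transcribed on Illumina chips by stalled E. coli RNA polymerase and titrated with SNAP-549-labelled MS2 coat protein, doubling from 0.7 or 1.5 nM to 3 µM.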

[1] = input ligand: microRNA oligo, concentration not stated
[2] = Eterna round: R95, input ligand: microRNA oligo, concentration not stated
[3] = Eterna round: R95, input ligand: FMN 200 uM
[4] = Eterna round: R95, input ligand: none

Sequence	apparent KD of MS2 coat protein (input ligand: FMN 200 uM) [nM]	apparent KD of MS2 coat protein [1] [nM]	apparent KD of MS2 coat protein (input ligand: none) [nM]	apparent KD of MS2 coat protein [2] [nM]	apparent KD of MS2 coat protein [3] [nM]	apparent KD of MS2 coat protein [4] [nM]
CUGCUCCGUGUAGGAUAUGCAUACCACCACUAUGCAGAAGGACAUGAGGAUCACCCAUGUAUGUUAUUAUCACGUGUAGCGUCC [Design 18] (Eterna round: R96, puzzle: Exclusion NG 1)	23	14.9	20.6			
AUCAUGUCAGGAUAUGUGAUAUGGAUCUUCGGAUCAAGUUCACAGAAGGGACAUGAGGAUCACCCAUGUCGAAC [Ex4-3: 30] (puzzle: Exclusion 4)				40.1		
GGUGCGAGUGUGAGGAUAUGCUGGUCGUAAGAUCAGCAGAAGGCACAUGAGGAUCACCCAUGUGAAAACGUACC [Mat - Exclusion 4 - JL Mod - D75] (puzzle: Brourd's mod of Exclusion 4)				18.8		
UAUAUAUAGUAAGGAUAUGUAAUUAUAUUAUAAACAGAAGGUACUGACAUGAGGAUCACCCAUGUUUUAGUGUGGGCAUGUAGA [JMF's solution 38] (Eterna round: R96, puzzle: Exclusion NG 1)	85.9	60.1	97.7			
UCGCUCCGUGUAGGAUAUCGCUGUAUGAUGCGGCGAGAAGGACAUGAGGAUCACCCAUGUAUGUUAUUAUCACGCGUGGCGCAA [Design 64] (Eterna round: R96, puzzle: Exclusion NG 1)	21.8	11.6	17.5			
ACUGGUCGAGGAUAUACAAUCGUGCUUCGGCACGUAAGAUCACAUGAGGAUCACCCAUGUAGAAGGUGACCAGU [E2/1-B2] (Eterna round: R97, puzzle: Exclusion 2)	135		28.3			
GUGGUACAUGAGGAUCACCCAUGUUAGGAUAUCGCGUGGUUUUUUGCGGCCGCGCGCGCGAGAAGGGACGUCUU (puzzle: Exclusion 1)				29.3		
UCACGGGACUAAGGAUAUAUGAGAGCCAUUAACAUAGAAGGUAGAAUGUUAGAUCAUAAACUAAACAUGAGGAUCACCCAUGUU [JR_ExcNG1_Sub093] (Eterna round: R96, puzzle: Exclusion NG 1)	19.6	20.2	23.2			
AUAUUAAUAUAGGAUAUCGAAUUUAUAAAUUAUCGAGAAGGAUAAACAUGAGGAUCACCCAUGUGGUAUCAUGG [Mat - Exclusion 6 - JL Mod - D42] (puzzle: Exclusion 6)				222	239	346
AAUAACAAGCAGAUCCUAAACAUGAGGAUCACCCAUGUGCGCGUCUUGUAAAGUACUAUCACGAAAGUGAUAGUACA (Eterna round: R97, puzzle: Sensor, turn-off variant 1)	190		133			
UCACGUACAGGAUAUACAUGAGGAUCACCCAUGUGCUCGAAGGCACGCCCGAGAUUCUGUAGAAGGGUAUAGCA [Eternabot (L1) Solution 50] (Eterna round: R97, puzzle: Exclusion 3)	38.4		32.5			
UAAUAUCUGUAGGAUAUCAGUGGAGAACACGUAUGAGAAGGGCAGACAUGAGGAUCACCCAUGUAUAGGGUCCG [BotMod 6 - Jieux - Exclusion 6] (Eterna round: R97, puzzle: Exclusion 6)	59.1		20.2			
AUAUUUAAUGAGGAUAUCGUUGUAGGUAUAUAGCGAGAAGGCAUUACAUGAGGAUCACCCAUGUAGUGUGGGUU [JR_Ex6_Sub021] (Eterna round: R97, puzzle: Exclusion 6)	78.7		23.7			
AAUAAAACAUAGGAUAUCGAAUUUAUUAUUUAACGAGAAGGAUGAACAUGAGGAUCACCCAUGUGGUAUCAUGG [Mat - Exclusion 6 - JL Mod - D24] (puzzle: Exclusion 6)				190	258	207
AGGGCUGCUCAGGAUAUCCGUAAAAGCCGAAAAGGAGAAGGGAGCACAUGAGGAUCACCCAUGUGAUCCUAAAA [Orbemaored] (puzzle: Exclusion 6)				14.6	28	15.5
CGGAAAUCCUAGGAUAUGCUAGACGAAAGUCUAGCAGAAGGAGGAACAUGAGGAUCACCCAUGUGUCCUAUCCG [Mat - Exclusion 6 - Eli Mod - D16] (Eterna round: R97, puzzle: Exclusion 6)	26		17.1			
AAGAAACGAGGAUAUACAAUUAAGAGAGAGAAGGAAAUGAGACAUGAGGAUCACCCAUGUAGAAGGCGUAAGAA [JR_Exclu2_Sub082] (puzzle: Exclusion 2)				31.1	27.6	26.5

Sequence	apparent KD of MS2 coat protein (input ligand: FMN 200 uM) [nM]	apparent KD of MS2 coat protein [1] [nM]	apparent KD of MS2 coat protein (input ligand: none) [nM]	apparent KD of MS2 coat protein [2] [nM]	apparent KD of MS2 coat protein [3] [nM]	apparent KD of MS2 coat protein [4] [nM]
ACAGUCACAUGGGUACCAGACAUGAGGAUCACCCAUGUGACAGGUACUUUGUGGCGUCUUGUAUAAUUAAUAAUCAA [Sensor v2, turn off variant (Maaon - vinnie MOD7)] (Eterna round: R96, puzzle: Sensor v2, turn-off variant)	9.97	14.3	13.4			
UCUUAUUGCAAGGAUAUGCUAUUUAUUUUUUUUGCAGAAGGUGCAACAUGAGGAUCACCCAUGUUUCCGGGCAU [JR_E6_Sub036] (puzzle: Exclusion 6)				20.3		
GUUGGAUGAGGAUAUCGAGGUUAGUACAUGAGGAUCACCCAUGUUAUCCAGGUGUCGGUUCGAGAAGGCAUUGGAC [LRO-Ex5-14] (Eterna round: R96, puzzle: Exclusion 5)	104	27.8	34.7			
AUAUUGUGAGGAUAUGAACUUAGUAACGAAAGAUACUAAGUUCAGAAGGCACAUGAGGAUCACCCAUGUUUCUC [Long static hairpin v11] (Eterna round: R97, puzzle: Exclusion 4)	596		68.1			
CCAUGGGAGCGAGGAUAUAGACCAUGGGAAGAGCUAGAAGGCGCUGACAUGAGGAUCACCCAUGUGUUCAUGAGGAGGUGGACA (Eterna round: R96, puzzle: Exclusion NG 1)	215	88.7	113			
UUUUUCUCAGGAUAUACAUGAGGAUCACCCAUGUAUAUUAAUGAUAAUACAUGGGAAUGUAGAAGGGAGCUCAU [Omei Ex3 Pseudoloop 13] (Eterna round: R97, puzzle: Exclusion 3)	111		135			
UUAACCAGAGGAUAUGCGAAUAAAUAAAACUUUUUUUUUUAACAUGAGGAUCACCCAUGUAGAAGGCUGCAAUU [Ex2 #31] (Eterna round: R97, puzzle: Exclusion 2)	32		46.8			
AAAGAACAUGAGGAUCACCCAUGUGAGGAUAUCGAGAAAAGAAAGAAGAAGAAGAAAACGAGAAGGCACAAGAA [The design that might work] (puzzle: Exclusion 1)				65	43.7	56.9
ACAUGAGGAUCACCCAUGUUUUUUGGGUACUCUUGAUACAGCAAGGAUAUGCAUUAUUUAUGUACGCAGAAGGUGCAUUACGUC [JR_ExcNG3_Sub063] (Eterna round: R96, puzzle: Exclusion NG 3)		837				
GUUCACGUAGGAUAUACGGUUGGUGUGCGCGAAGGCCUUUGACAUGAGGAUCACCCAUGUAGAAGGACGAUGAA [EX2 C.24] (Eterna round: R97, puzzle: Exclusion 2)	32.1		31			
UUCUUGCGCGUGAGGAUAUGCUGAUCCCAGGAUUAGCAGAAGGCACAUGAGGAUCACCCAUGUCCAACUUGUCU [LRO-BmodExc4-15- Bluer = mod of Colors by Tatyana Zabanova] (Eterna round: R97, puzzle: Brourd's mod of Exclusion 4)	51.4		38.6			
UGUUGUUACGUAGGAUAUCCACCAACAGGUGGAAGGAUAUGUACGCAGAAGGUUCGCCAACAGGCGGAGAAGGACGGGUUAACA [pwkr exNG2 2xF7 2xFMN.27] (Eterna round: R96, puzzle: Exclusion NG 2)	1370	473	300			
UUGUUACAUGAGGAUCACCCAUGUGAGGAUAUGGUUCAGUACUGUAAUGUAAAGUACUCCAGAAGGCACAUGUU [1st #28] (Eterna round: R97, puzzle: Exclusion 1)	693		264			
AGAUCGUCAGGAUAUACAUGAGGAUCACCCAUGUACUGUCUAAAUUUGACUGUAAGAUGUAGAAGGGACGAUCG [Exclusion 3 (MOD9 of #1 Marzena11)] (Eterna round: R97, puzzle: Exclusion 3)	67.3		25.8			
ACUGGUCGAGGAUAUACAUGAGGAUCACCCAUGUAGAUCAACCAGCGAUAGCUGGAAUGUAGAAGGCGACCAGU [E3/5-A2] (Eterna round: R97, puzzle: Exclusion 3)	191		24.6			
CUCUUGGCAGGAUAUGCUCUCUUAGACAUGAGGAUCACCCAUGUGCUCAUUCCUUCUUUUGCAGAAGGGCCUUAAC [JR_E5_Sub047] (puzzle: Exclusion 5)				63.9		
GCAGCGUAGUCCAAAUAGGACAUACAUGAGGAUCACCCAUGUCAGGAUAUGGUCUGGAUUACAGGCCAGAAGGGACAAAGCUGC [Eli exng3 - 003] (Eterna round: R96, puzzle: Exclusion NG 3)	19	15.8	26			
